Source: US20170296629A1, “INHIBITOR OF EXTRACELLULAR TRAP FORMATION IN LEUKOCYTE” (KEIO UNIVERSITY, priority 2014, published 2017)

System: Healthy Individual's Peripheral Blood Neutrophil
Assay: Inhibition of NET formation in neutrophils pretreated with lactoferrin-derived peptide fragment; DNA concentration in culture supernatant (Picogreen)
Assay type: cell-based
Details: human neutrophils, pretreatment at room temperature for 30 minutes
Protocol: Effect of Inhibiting NET Formation Stimulation of Healthy Individual's Peripheral Blood Neutrophil by Pretreatment with Lactoferrin-derived Peptide Fragment
For each round of experiment, 15 ml to 20 ml of peripheral blood was collected from a healthy individual by using an EDTA-containing syringe (with a needle of 18 to 22 G). After collecting the blood, in a 15 ml conical tube charged with 3 ml of Mono-Poly Resolving Medium (Cat No. DSBN100, DS Pharma Biochemical Co., Ltd.), 3.5 ml of the whole blood was gently layered over a lower layer of Mono-Poly Resolving Medium. The resultant 15 ml conical tube was centrifuged with a swing centrifuge at room temperature (15 to 30° C.) at 400×g for 20 minutes, and the conical tube was then gently taken out. An uppermost brown plasma layer and a lymphocyte/monocyte layer thereunder were removed with an aspirator or the like. In addition, a transparent layer under the lymphocyte/monocyte layer was removed as much as possible. […]
A culture supernatant was collected, centrifuged at 200×g for 10 minutes, and the thus obtained supernatant was transferred to a fresh microcentrifuge tube. The amount of DNA was measured by using Picogreen dsDNA assay reagent (P11496 Invitrogen) in accordance with the accompanying protocol.

B1: human lactoferrin: Human lactoferrin protein, Genbank NP_001186078.1 (protein, listed as Homo sapiens)
chain: MRKVRGPPVSCIKRDSPIQCIQAIAENRADAVTLDGGFIYEAGLAPYKLRPVAAEVYGTERQPRTHYYAVAVVKKGGSFQLNELQGLKSCHTGLRRTAGWNVPIGTLRPFLNWTGPPEPIEAAVARFFSASCVPGADKGQFPNLCRLCAGTGENKCAFSSQEPYFSYSGAFKCLRDGAGDVAFIRESTVFEDLSDEAERDEYELLCPDNTRKPVDKFKDCHLARVPSHAVVARSVNGKEDAIWNLLRQAQEKFGKDKSPKFQLFGSPSGQKDLLFKDSAIGFSRVPPRIDSGLYLGSGYFTAIQNLRKSEEEVAARRARVVWCAVGEQELRKCNQWSGLSEGSVTCSSASTTEDCIALVLKGEADAMSLDGGYVYTAGKCGLVPVLAENYKSQQSSDPDPNCVDRPVEGYLAVAVVRRSDTSLTWNSVKGKKSCHTAVDRTAGWNIPMGLLFNQTGSCKFDEYFSQSCAPGSDPRSNLCALCIGDEQGENKCVPNSNERYYGYTGAFRCLAENAGDVAFVKDVTVLQNTDGNNNEAWAKDLKLADFALLCLDGKRKPVTEARSCHLAMAPNHAVVSRMDKVERLKQVLLHQQAKFGRNGSDCPDKFCLFQSETKNLLFNDNTECLARLHGKTTYEKYLGPQYVAGITNLKKCSTSPLLEACEFLRK
DNA concentration in the culture supernatant (release of the DNA due to the NET): reduced in a concentration-dependent manner
